In the supplement of paper PMC7877785:
± gives the uncertainty stated by the source.

Experiment: self-splicing fitness, log relative to wild type (ln ratio); higher = more splicing; Tetrahymena group I intron in knt gene, E. coli kanamycin selection, DiMSum; sequences stand for … in CUCUCU…GGAGGGAAAAGUUAUCAGGCAUGCACCUGGUAGCUAGUCUUUAAACCAAUAGAUUGCAUCGGUUUAAAAGGCAAGACCGUCAAAUUGCGGGAAAGGGGUCAACAGCCGUUCAGUACCAAGUCUCAGGGGAAACUUUGAGAUGGCCUUGCAAAGGGUAUGGUAAUAAGCUGACGGACAUGGUCCUAACCACGCAGCCAAGUCCUAAGUCAACAGAUCUUCUGUUGAUAUGGAUGCAGUUCACAGACUAAAUGUCGGUCGGGGAAGAUGUAUUCUUCUCAUAAGAUAUAGUCGGACCUCUCCUUAAUGGGAGCUAGCGGAUGAAGUGAUGCAACACUGGAGCCGCUGGGAACUAAUUUGUAUGCGAAAGUAUAUUGAUUAGUUUUGGAGUACUCGUGGUCG
Method in brief: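 A randomised library covering all eight P1ex-region intron nucleotides was built with the intron in the knt kanamycin-resistance gene on pET-22b(+) and held in E. coli BL21(DE3). Cells were grown overnight at 37°C or 30°C on LB agar, with or without 25 μg/mL kanamycin, plus 100 μg/mL carbenicillin, 50 μM IPTG and 0.2% rhamnose, and pooled colonies were amplicon-sequenced on an Illumina HiSeq 2500. DiMSum fitness is the error-weighted combination of wild-type-normalised replicate fold changes, kanamycin versus none.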

Sequence	self-splicing fitness (ln) (30 °C)	self-splicing fitness (ln) (37 °C)
GGGGAGCAAUAUUACGGGUG	-3.57 ± 0.23	-2.9 ± 0.43
GGGGAGCAAUAUUACGGUCU	-3.73 ± 0.4	-0.856 ± 0.31
GGGGAGCAAUAUUACGGUUG	-3.25 ± 0.21	-2.18 ± 0.22
GGGGAGCAAUAUUACGGUUU	-1.27 ± 0.24	-0.456 ± 0.29
GGGGAGCAAUAUUACGUAUG	–	-1.58 ± 0.31
GGGGAGCAAUAUUACGUCGC	–	-0.104 ± 0.44
GGGGAGCAAUAUUACGUGAU	-2.84 ± 0.25	-1.8 ± 0.26
GGGGAGCAAUAUUACGUUUC	-2.65 ± 0.2	-2.64 ± 0.29
GGGUAGCAAUAUUACGACCA	-0.444 ± 0.23	-0.732 ± 0.42
GGGUAGCAAUAUUACGACGA	-0.202 ± 0.15	-0.379 ± 0.14
GGGUAGCAAUAUUACGAUAG	-2.32 ± 0.37	–
GGGUAGCAAUAUUACGAUAU	-0.506 ± 0.11	-0.0772 ± 0.12
GGGUAGCAAUAUUACGAUUC	-0.648 ± 0.12	0.268 ± 0.19
GGGUAGCAAUAUUACGCAAG	-1.59 ± 0.11	-0.847 ± 0.16
GGGUAGCAAUAUUACGCACA	-0.833 ± 0.2	0.402 ± 0.22
GGGUAGCAAUAUUACGCGAC	-2.34 ± 0.2	-1.62 ± 0.23
GGGUAGCAAUAUUACGCGAU	-3.42 ± 0.26	-1.93 ± 0.23
GGGUAGCAAUAUUACGCUAC	-1.81 ± 0.34	–
GGGUAGCAAUAUUACGCUGG	-2.61 ± 0.35	-2.45 ± 0.42
GGGUAGCAAUAUUACGCUGU	-3.54 ± 0.38	-2.32 ± 0.29
GGGUAGCAAUAUUACGGAGG	–	-0.988 ± 0.29
GGGUAGCAAUAUUACGGGUC	-2.32 ± 0.17	-1.1 ± 0.18
GGGUAGCAAUAUUACGGUCC	-1.34 ± 0.25	–
GGGUAGCAAUAUUACGUCGA	-0.508 ± 0.14	-0.243 ± 0.15
GGGUAGCAAUAUUACGUCGG	-3.8 ± 0.2	-1.68 ± 0.17
GGGUAGCAAUAUUACGUGAG	-0.474 ± 0.074	0.074 ± 0.11
GGGUAGCAAUAUUACGUUUU	-1.31 ± 0.063	-0.826 ± 0.1

Sequence	self-splicing fitness (ln) (30 °C)	self-splicing fitness (ln) (37 °C)
GGUAAGCAAUAUUACGAAAU	-1.94 ± 0.34	-0.431 ± 0.32
GGUAAGCAAUAUUACGACUC	0.295 ± 0.12	-0.605 ± 0.18
GGUAAGCAAUAUUACGAGAG	-3.7 ± 0.4	-3.25 ± 0.25
GGUAAGCAAUAUUACGCAAU	-1.38 ± 0.11	-1.44 ± 0.14
GGUAAGCAAUAUUACGCCCA	-1.68 ± 0.23	-1.01 ± 0.27
GGUAAGCAAUAUUACGCCUG	–	-1.53 ± 0.33
GGUAAGCAAUAUUACGCGAG	-2.95 ± 0.15	-0.704 ± 0.09
GGUAAGCAAUAUUACGCGCG	-0.623 ± 0.1	0.012 ± 0.14
GGUAAGCAAUAUUACGCGUG	-2.42 ± 0.18	-0.242 ± 0.15
GGUAAGCAAUAUUACGCUGA	-2.82 ± 0.28	-0.411 ± 0.22
GGUAAGCAAUAUUACGCUUG	-3.34 ± 0.38	-1.7 ± 0.34
GGUAAGCAAUAUUACGGCUG	-0.805 ± 0.14	0.356 ± 0.15
GGUAAGCAAUAUUACGGGGA	–	-2.42 ± 0.33
GGUAAGCAAUAUUACGGGUU	-1.82 ± 0.076	-1.69 ± 0.11
GGUAAGCAAUAUUACGGUGC	-1.14 ± 0.15	-0.983 ± 0.26
GGUAAGCAAUAUUACGGUGU	-1.81 ± 0.1	-0.484 ± 0.11
GGUAAGCAAUAUUACGGUUU	-0.707 ± 0.056	-0.0713 ± 0.083
GGUAAGCAAUAUUACGUAGU	-1.48 ± 0.11	-1.46 ± 0.17
GGUAAGCAAUAUUACGUGGU	-1.33 ± 0.29	-2.48 ± 0.21
GGUAAGCAAUAUUACGUGUC	-2.08 ± 0.23	-0.504 ± 0.3
GGUCAGCAAUAUUACGACAG	-0.391 ± 0.11	0.151 ± 0.13
GGUCAGCAAUAUUACGACCU	-3.06 ± 0.3	-2.07 ± 0.32
GGUCAGCAAUAUUACGACUG	-0.394 ± 0.15	-0.586 ± 0.2
GGUCAGCAAUAUUACGAGUC	-1.51 ± 0.09	-0.893 ± 0.1
GGUCAGCAAUAUUACGAGUU	-1.38 ± 0.068	-0.17 ± 0.071
GGUCAGCAAUAUUACGAUAA	0.11 ± 0.092	0.447 ± 0.15
GGUCAGCAAUAUUACGAUCA	-0.0175 ± 0.14	0.178 ± 0.13

Sequence	self-splicing fitness (ln) (30 °C)	self-splicing fitness (ln) (37 °C)
GGUCAGCAAUAUUACGAUGG	-1.34 ± 0.076	-0.299 ± 0.1
GGUCAGCAAUAUUACGAUUA	-0.0947 ± 0.092	-0.0575 ± 0.092
GGUCAGCAAUAUUACGCAGC	-1.76 ± 0.14	-0.838 ± 0.13
GGUCAGCAAUAUUACGCCUU	-0.559 ± 0.051	0.122 ± 0.069
GGUCAGCAAUAUUACGCUUU	0.129 ± 0.071	-0.0673 ± 0.092
GGUCAGCAAUAUUACGGGCG	-0.483 ± 0.088	0.32 ± 0.12
GGUCAGCAAUAUUACGGUUA	-0.399 ± 0.081	0.53 ± 0.076
GGUCAGCAAUAUUACGUCCA	-1.63 ± 0.11	-1.02 ± 0.1
GGUCAGCAAUAUUACGUGCG	0.397 ± 0.12	-0.078 ± 0.13
GGUCAGCAAUAUUACGUGGA	-1.82 ± 0.14	-1.58 ± 0.14
GGUCAGCAAUAUUACGUUAC	-1.25 ± 0.061	-0.483 ± 0.08
GGUCAGCAAUAUUACGUUUG	-2.61 ± 0.11	-2.38 ± 0.15
GGUGAGCAAUAUUACGAAGG	–	-2.87 ± 0.4
GGUGAGCAAUAUUACGAAUU	-1.69 ± 0.36	-0.274 ± 0.38
GGUGAGCAAUAUUACGACAG	-3.05 ± 0.41	–
GGUGAGCAAUAUUACGAGUA	-1.41 ± 0.21	-1.69 ± 0.29
GGUGAGCAAUAUUACGAUGG	–	-1.2 ± 0.39
GGUGAGCAAUAUUACGCAAU	-3.03 ± 0.32	-1.94 ± 0.43
GGUGAGCAAUAUUACGCCGU	-2.63 ± 0.42	–
GGUGAGCAAUAUUACGCGGC	-2.2 ± 0.27	-1.9 ± 0.28
GGUGAGCAAUAUUACGCGUU	-2.61 ± 0.15	-0.173 ± 0.16
GGUGAGCAAUAUUACGGAAG	–	-2.66 ± 0.41
GGUGAGCAAUAUUACGGAGA	-1.36 ± 0.37	–
GGUGAGCAAUAUUACGGCAA	-1.26 ± 0.34	-1.28 ± 0.42
GGUGAGCAAUAUUACGGCCA	-1 ± 0.26	-0.395 ± 0.17
GGUGAGCAAUAUUACGGUUA	-2.58 ± 0.22	-1.85 ± 0.17
